Assays:
PARP-16 = biological target: T1, PARP-16 (Homo sapiens, UniProt Q8N5Y8); assay: 32P-NAD+ incorporation assay with recombinant GST-PARP-16 (self-modification); assay type: biochemical; conditions: of wild-type GST-PARP-16; purified from E. coli
T1 construct: Asterisk=full-length proteins; made in house; host or cells: E. coli BL21 RIPL
T1 sequence (Q8N5Y8 1-322): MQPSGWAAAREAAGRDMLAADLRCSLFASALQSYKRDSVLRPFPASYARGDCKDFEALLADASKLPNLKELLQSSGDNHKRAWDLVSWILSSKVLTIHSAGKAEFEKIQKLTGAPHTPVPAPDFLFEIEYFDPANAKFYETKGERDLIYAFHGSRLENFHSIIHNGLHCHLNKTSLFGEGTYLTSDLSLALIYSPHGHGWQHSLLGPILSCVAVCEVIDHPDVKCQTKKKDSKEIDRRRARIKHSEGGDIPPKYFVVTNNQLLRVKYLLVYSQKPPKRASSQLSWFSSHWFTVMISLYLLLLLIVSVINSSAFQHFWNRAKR
From the text: Human PARP-16 (ADP-ribosyl)ates itself and contains histidine and tyrosine residues at amino acid 152 and 182 within its catalytic domain, residues thought to be critical for enzymatic activity (FIG. 1B) (Kleine et al., Mol. Cell 32: 57-69, 2008). To determine if these residues are required for enzymatic activity, GST-PARP-16 and GST-PARP-16^H152Q Y182A were expressed and purified in E. coli, and ^32P-NAD^+ incorporation assays performed.
(§1) For ER microsome-based assays including NAD^+ incorporation and immunoprecipitation, ER microsomes were fractionated from HeLa cells via isopycnic flotation method as described in Stephens et al., Methods Mol Biol. 419: 197-214, 2008, and incubated with 100 μM β-NAD^+ (MP Biomedicals) and 2.5 μCi of ^32P-NAD^+ (Perkin Elmer) in a PARP reaction buffer (50 mM HEPES pH 7.4, 150 mM NaCl, 1 mM MgCl2, 10 mM EGTA, 1 mM DTT, 0.1 mM Na3VO4, 50 mM NaF, 5 mM β-glycerophosphate, 1 μM ADP-HPD, and protease inhibitor cocktail) at 25° C. for 30 min. The ratio between unlabeled and labeled NAD^+ was kept constant upon titration of NAD^+ concentration. The ^32P-labeled ER microsomes were then lysed by addition of Triton X-100 at 1%. Proteins were immunoprecipitated, eluted in a 1× Laemmli sample buffer by boiling at 65° C. for 10 min, and then analyzed using autoradiogram and immunoblotting. […]

PERK = assay: NAD+ incorporation assay with ER microsome-purified PERK and recombinant GST-PARP-16; assay type: biochemical, human; conditions: PERK purified from ER microsomes of unstressed PARP-16 knockdown cells
From the text: We examined NAD^+ incorporation onto GFP-PERK or GFP-IRE1α via EMAA in cells transfected with control or PARP-16 siRNA, treated with or without ER stress inducing drugs. Low level (ADP-ribosyl)ation of GFP-PERK and GFP-IRE1α was detected in control knock-down cells in the absence of drug (FIGS. 6C and 6D), likely due to the previously described UPR induction upon PERK or IRE1α expression (Bertolotti et al., Nat. Cell Biol. 2: 326-332, 2000; Kimata et al., Curr. Opin. Cell Biol. 23: 135-142, 2011).
as §1

GFP-PERK = assay: PERK kinase assay after (ADP-ribosyl)ation of ER microsomes by GST-PARP-16; assay type: biochemical, human; conditions: versus GST-PARP-16 samples; depending on NAD concentration
Method: We examined PERK and IRE1α kinase activity in response to (ADP-ribosyl)ation by PARP-16 via self-phosphorylation assays. ER microsomes purified from GFP-PERK- or GFP-IRE1α-expressing cells were washed with 1M NaCl to remove bound PARP-16, returned to physiological salt buffer, split into duplicate reactions, and incubated with unlabeled NAD^+ plus either GST-PARP-16 or GST-PARP-16^H152Q Y182A, or ^32P-NAD^+ plus either recombinant protein. (ADP-ribosyl)ated GFP-PERK or GFP-IRE1α were extracted from the microsomes and purified under 1 M NaCl conditions to remove added recombinant PARP-16 proteins. Reactions containing unlabeled NAD^+ were incubated with ^32P-ATP, and reactions containing ^32P-NAD^+ were incubated with unlabeled ATP. […] Phosphorylation by GFP-IRE1α at the molecular weight of GST-PARP-16 and GST-PARP16^H152Q Y182A was also detected (FIG. 7E).
PERK and IRE1α kinase assays were performed as described herein. […] Proteins were immunoprecipitated, eluted in 1× Laemmli sample buffer by heating at 65° C. for 10 min, and then analyzed using autoradiogram and immunoblotting.

B1: GST-PARP-16^H152Q Y182A: recombinant GST-PARP-16 catalytically inactive mutant, His152 and Tyr182 mutated, purified in E. coli (protein, UniProt Q8N5Y8 1-322, looked up, variant H152Q Y182A)
Protein …: MQPSGWAAAREAAGRDMLAADLRCSLFASALQSYKRDSVLRPFPASYARGDCKDFEALLADASKLPNLKELLQSSGDNHKRAWDLVSWILSSKVLTIHSAGKAEFEKIQKLTGAPHTPVPAPDFLFEIEYFDPANAKFYETKGERDLIYAFQGSRLENFHSIIHNGLHCHLNKTSLFGEGTALTSDLSLALIYSPHGHGWQHSLLGPILSCVAVCEVIDHPDVKCQTKKKDSKEIDRRRARIKHSEGGDIPPKYFVVTNNQLLRVKYLLVYSQKPPKRASSQLSWFSSHWFTVMISLYLLLLLIVSVINSSAFQHFWNRAKR
modifications: GST fusion
32P-NAD+ incorporation activity relative to wild-type (PARP-16): ~6%
ADP-ribosylation of PERK (PERK): not
reduction of phosphorylation by PERK at the molecular weight of GST-PARP-16 (GFP-PERK): 5-10 fold

Reference: patent US20140348857A1, “METHODS OF DIAGNOSIS AND TREATMENT OF ENDOPLASMIC RETICULUM (ER) STRESS-RELATED CONDITIONS” (MASSACHUSETTS INSTITUTE OF TECHNOLOGY, priority 2011, published 2014)
